Reference: article PMC12416549 (2024)

T1: TNFR1 (Homo sapiens, UniProt P19438)
T1 chain: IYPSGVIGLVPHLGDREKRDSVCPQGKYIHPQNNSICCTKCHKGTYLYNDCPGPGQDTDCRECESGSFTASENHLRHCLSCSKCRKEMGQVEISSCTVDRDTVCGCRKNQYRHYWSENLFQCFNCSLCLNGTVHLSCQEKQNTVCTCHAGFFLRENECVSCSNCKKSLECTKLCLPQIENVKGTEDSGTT


Biological target: T1, TNFR1
Experiment: yeast display SC50

Binder | apparent Kd (screen) [nM]
R50S (designed binder) MTLQELLREEALRRAEAEAFRYALELLAEKFPEQKEYLLDLAEEIESQISSLSGVDVEDVRKFLDKEWAWVKELLAEHPAELAEVEAARAARLAELRAEVEAKVAA | 0.653
E16H (designed binder) MTLQELLREEALRRAHAEAFRYALELLAEKFPEQKEYLLDLAEEIESQIRSLSGVDVEDVRKFLDKEWAWVKELLAEHPAELAEVEAARAARLAELRAEVEAKVAA | 0.718
R97K (designed binder) MTLQELLREEALRRAEAEAFRYALELLAEKFPEQKEYLLDLAEEIESQIRSLSGVDVEDVRKFLDKEWAWVKELLAEHPAELAEVEAARAARLAELKAEVEAKVAA | 0.539
A94M (designed binder) MTLQELLREEALRRAEAEAFRYALELLAEKFPEQKEYLLDLAEEIESQIRSLSGVDVEDVRKFLDKEWAWVKELLAEHPAELAEVEAARAARLMELRAEVEAKVAA | 0.718
A19Q (designed binder) MTLQELLREEALRRAEAEQFRYALELLAEKFPEQKEYLLDLAEEIESQIRSLSGVDVEDVRKFLDKEWAWVKELLAEHPAELAEVEAARAARLAELRAEVEAKVAA | 0.446
K62R (designed binder) MTLQELLREEALRRAEAEAFRYALELLAEKFPEQKEYLLDLAEEIESQIRSLSGVDVEDVRRFLDKEWAWVKELLAEHPAELAEVEAARAARLAELRAEVEAKVAA | 0.539
E44F (designed binder) MTLQELLREEALRRAEAEAFRYALELLAEKFPEQKEYLLDLAEFIESQIRSLSGVDVEDVRKFLDKEWAWVKELLAEHPAELAEVEAARAARLAELRAEVEAKVAA | 16.7
L12E (designed binder) MTLQELLREEAERRAEAEAFRYALELLAEKFPEQKEYLLDLAEEIESQIRSLSGVDVEDVRKFLDKEWAWVKELLAEHPAELAEVEAARAARLAELRAEVEAKVAA | 1.27
A17C (designed binder) MTLQELLREEALRRAECEAFRYALELLAEKFPEQKEYLLDLAEEIESQIRSLSGVDVEDVRKFLDKEWAWVKELLAEHPAELAEVEAARAARLAELRAEVEAKVAA | 0.446
Y22E (designed binder) MTLQELLREEALRRAEAEAFREALELLAEKFPEQKEYLLDLAEEIESQIRSLSGVDVEDVRKFLDKEWAWVKELLAEHPAELAEVEAARAARLAELRAEVEAKVAA | 0.304
L7M (designed binder) MTLQELMREEALRRAEAEAFRYALELLAEKFPEQKEYLLDLAEEIESQIRSLSGVDVEDVRKFLDKEWAWVKELLAEHPAELAEVEAARAARLAELRAEVEAKVAA | 2.48
R14C (designed binder) MTLQELLREEALRCAEAEAFRYALELLAEKFPEQKEYLLDLAEEIESQIRSLSGVDVEDVRKFLDKEWAWVKELLAEHPAELAEVEAARAARLAELRAEVEAKVAA | 0.539
E99H (designed binder) MTLQELLREEALRRAEAEAFRYALELLAEKFPEQKEYLLDLAEEIESQIRSLSGVDVEDVRKFLDKEWAWVKELLAEHPAELAEVEAARAARLAELRAHVEAKVAA | 0.49
E46T (designed binder) MTLQELLREEALRRAEAEAFRYALELLAEKFPEQKEYLLDLAEEITSQIRSLSGVDVEDVRKFLDKEWAWVKELLAEHPAELAEVEAARAARLAELRAEVEAKVAA | 0.653
E46M (designed binder) MTLQELLREEALRRAEAEAFRYALELLAEKFPEQKEYLLDLAEEIMSQIRSLSGVDVEDVRKFLDKEWAWVKELLAEHPAELAEVEAARAARLAELRAEVEAKVAA | 0.49
P32R (designed binder) MTLQELLREEALRRAEAEAFRYALELLAEKFREQKEYLLDLAEEIESQIRSLSGVDVEDVRKFLDKEWAWVKELLAEHPAELAEVEAARAARLAELRAEVEAKVAA | 0.539
D56P (designed binder) MTLQELLREEALRRAEAEAFRYALELLAEKFPEQKEYLLDLAEEIESQIRSLSGVPVEDVRKFLDKEWAWVKELLAEHPAELAEVEAARAARLAELRAEVEAKVAA | 6.43
K62A (designed binder) MTLQELLREEALRRAEAEAFRYALELLAEKFPEQKEYLLDLAEEIESQIRSLSGVDVEDVRAFLDKEWAWVKELLAEHPAELAEVEAARAARLAELRAEVEAKVAA | 0.593
A17F (designed binder) MTLQELLREEALRRAEFEAFRYALELLAEKFPEQKEYLLDLAEEIESQIRSLSGVDVEDVRKFLDKEWAWVKELLAEHPAELAEVEAARAARLAELRAEVEAKVAA | 0.49

Second part, the binder after the results:

apparent Kd (screen) [nM] | Binder
0.49 | E101W (designed binder) MTLQELLREEALRRAEAEAFRYALELLAEKFPEQKEYLLDLAEEIESQIRSLSGVDVEDVRKFLDKEWAWVKELLAEHPAELAEVEAARAARLAELRAEVWAKVAA
0.49 | E81I (designed binder) MTLQELLREEALRRAEAEAFRYALELLAEKFPEQKEYLLDLAEEIESQIRSLSGVDVEDVRKFLDKEWAWVKELLAEHPAILAEVEAARAARLAELRAEVEAKVAA
1.05 | G54Q (designed binder) MTLQELLREEALRRAEAEAFRYALELLAEKFPEQKEYLLDLAEEIESQIRSLSQVDVEDVRKFLDKEWAWVKELLAEHPAELAEVEAARAARLAELRAEVEAKVAA
0.653 | K62L (designed binder) MTLQELLREEALRRAEAEAFRYALELLAEKFPEQKEYLLDLAEEIESQIRSLSGVDVEDVRLFLDKEWAWVKELLAEHPAELAEVEAARAARLAELRAEVEAKVAA
0.539 | L93Y (designed binder) MTLQELLREEALRRAEAEAFRYALELLAEKFPEQKEYLLDLAEEIESQIRSLSGVDVEDVRKFLDKEWAWVKELLAEHPAELAEVEAARAARYAELRAEVEAKVAA
0.718 | E25H (designed binder) MTLQELLREEALRRAEAEAFRYALHLLAEKFPEQKEYLLDLAEEIESQIRSLSGVDVEDVRKFLDKEWAWVKELLAEHPAELAEVEAARAARLAELRAEVEAKVAA
0.539 | P79N (designed binder) MTLQELLREEALRRAEAEAFRYALELLAEKFPEQKEYLLDLAEEIESQIRSLSGVDVEDVRKFLDKEWAWVKELLAEHNAELAEVEAARAARLAELRAEVEAKVAA
0.49 | L26S (designed binder) MTLQELLREEALRRAEAEAFRYALESLAEKFPEQKEYLLDLAEEIESQIRSLSGVDVEDVRKFLDKEWAWVKELLAEHPAELAEVEAARAARLAELRAEVEAKVAA
0.956 | R14V (designed binder) MTLQELLREEALRVAEAEAFRYALELLAEKFPEQKEYLLDLAEEIESQIRSLSGVDVEDVRKFLDKEWAWVKELLAEHPAELAEVEAARAARLAELRAEVEAKVAA
0.593 | R14Q (designed binder) MTLQELLREEALRQAEAEAFRYALELLAEKFPEQKEYLLDLAEEIESQIRSLSGVDVEDVRKFLDKEWAWVKELLAEHPAELAEVEAARAARLAELRAEVEAKVAA
0.539 | E29Y (designed binder) MTLQELLREEALRRAEAEAFRYALELLAYKFPEQKEYLLDLAEEIESQIRSLSGVDVEDVRKFLDKEWAWVKELLAEHPAELAEVEAARAARLAELRAEVEAKVAA
0.653 | E101M (designed binder) MTLQELLREEALRRAEAEAFRYALELLAEKFPEQKEYLLDLAEEIESQIRSLSGVDVEDVRKFLDKEWAWVKELLAEHPAELAEVEAARAARLAELRAEVMAKVAA
0.718 | K72C (designed binder) MTLQELLREEALRRAEAEAFRYALELLAEKFPEQKEYLLDLAEEIESQIRSLSGVDVEDVRKFLDKEWAWVCELLAEHPAELAEVEAARAARLAELRAEVEAKVAA
2.05 | A28V (designed binder) MTLQELLREEALRRAEAEAFRYALELLVEKFPEQKEYLLDLAEEIESQIRSLSGVDVEDVRKFLDKEWAWVKELLAEHPAELAEVEAARAARLAELRAEVEAKVAA
0.653 | E10Y (designed binder) MTLQELLREYALRRAEAEAFRYALELLAEKFPEQKEYLLDLAEEIESQIRSLSGVDVEDVRKFLDKEWAWVKELLAEHPAELAEVEAARAARLAELRAEVEAKVAA
0.79 | K103E (designed binder) MTLQELLREEALRRAEAEAFRYALELLAEKFPEQKEYLLDLAEEIESQIRSLSGVDVEDVRKFLDKEWAWVKELLAEHPAELAEVEAARAARLAELRAEVEAEVAA
